B1: construct 18532 (CD40 X HER2; 12E12, Pertuzumab; Fab x scFv) (bispecific antibody, human IgG1, kappa, L234A L235A)
heavy: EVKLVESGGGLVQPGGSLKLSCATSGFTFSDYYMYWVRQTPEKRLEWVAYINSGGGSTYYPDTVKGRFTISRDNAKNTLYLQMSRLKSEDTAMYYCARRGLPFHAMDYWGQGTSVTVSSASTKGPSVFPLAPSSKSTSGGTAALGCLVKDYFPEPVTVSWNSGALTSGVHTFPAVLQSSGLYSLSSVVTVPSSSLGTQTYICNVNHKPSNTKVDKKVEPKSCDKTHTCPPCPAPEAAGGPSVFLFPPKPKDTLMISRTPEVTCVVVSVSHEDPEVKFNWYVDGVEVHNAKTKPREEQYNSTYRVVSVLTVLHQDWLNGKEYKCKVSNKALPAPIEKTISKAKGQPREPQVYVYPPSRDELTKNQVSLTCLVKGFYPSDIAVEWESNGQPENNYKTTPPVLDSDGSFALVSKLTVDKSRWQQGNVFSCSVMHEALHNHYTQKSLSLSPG
light: DIQMTQTTSSLSASLGDRVTISCSASQGISNYLNWYQQKPDGTVKLLIYYTSILHSGVPSRFSGSGSGTDYSLTIGNLEPEDIATYYCQQFNKLPPTFGGGTKLEIKRTVAAPSVFIFPPSDEQLKSGTASVVCLLNNFYPREAKVQWKVDNALQSGNSQESVTEQDSKDSTYSLSSTLTLSKADYEKHKVYACEVTHQGLSSPVTKSFNRGEC
scFv: DIQMTQSPSSLSASVGDRVTITCKASQDVSIGVAWYQQKPGKAPKLLIYSASYRYTGVPSRFSGSGSGTDFTLTISSLQPEDFATYYCQQYYIYPATFGQGTKVEIKVEGGSGGSGGSGGSGGVDEVQLVESGGGLVQPGGSLRLSCAASGFTFADYTMDWVRQAPGKGLEWVGDVNPNSGGSIYNQRFKGRFTFSVDRSKNTLYLQMNSLRAEDTAVYYCARNLGPSFYFDYWGQGTLVTVSSAAEPKSSDKTHTCPPCPAPEAAGGPSVFLFPPKPKDTLMISRTPEVTCVVVSVSHEDPEVKFNWYVDGVEVHNAKTKPREEQYNSTYRVVSVLTVLHQDWLNGKEYKCKVSNKALPAPIEKTISKAKGQPREPQVYVLPPSRDELTKNQVSLLCLVKGFYPSDIAVEWESNGQPENNYLTWPPVLDSDGSFFLYSKLTVDKSRWQQGNVFSCSVMHEALHNHYTQKSLSLSPG
notes: also called v18532; Her2×CD40
B2: construct 18529 (DEC-205 X HER2; 3G9, Pertuzumab; Fab x scFv) (bispecific antibody, human IgG1, kappa, L234A L235A)
heavy: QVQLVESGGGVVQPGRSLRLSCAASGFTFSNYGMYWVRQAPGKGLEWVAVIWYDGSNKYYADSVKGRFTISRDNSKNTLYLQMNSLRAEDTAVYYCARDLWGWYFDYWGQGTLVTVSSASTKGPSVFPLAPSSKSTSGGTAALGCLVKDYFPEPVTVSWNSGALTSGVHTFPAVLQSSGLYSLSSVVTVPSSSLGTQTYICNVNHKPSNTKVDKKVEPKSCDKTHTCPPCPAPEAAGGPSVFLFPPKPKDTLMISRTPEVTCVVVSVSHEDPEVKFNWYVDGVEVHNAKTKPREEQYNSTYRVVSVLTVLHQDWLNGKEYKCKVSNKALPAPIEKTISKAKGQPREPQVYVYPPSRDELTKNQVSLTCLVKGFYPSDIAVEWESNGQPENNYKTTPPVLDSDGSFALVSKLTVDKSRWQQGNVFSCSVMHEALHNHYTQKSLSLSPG
light: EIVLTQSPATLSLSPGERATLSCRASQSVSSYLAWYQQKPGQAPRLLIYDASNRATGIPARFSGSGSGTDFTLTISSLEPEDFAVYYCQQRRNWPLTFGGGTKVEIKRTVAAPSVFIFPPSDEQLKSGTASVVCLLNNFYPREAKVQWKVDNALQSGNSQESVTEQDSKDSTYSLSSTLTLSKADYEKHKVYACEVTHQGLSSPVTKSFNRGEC
scFv: B1 scFv
notes: Three polypeptides A, B and C; also called Her2×Dec205

Columns and labels:
Assay in all cases: homogeneous cell binding assay on transfected HEK293-6e cells as in Example 8 (data not shown)
Human CD40 = molecular target: T1, Human CD40 (human, UniProt P25942 21-277)
T1 construct: whole, on cells
T1 sequence (P25942 21-277): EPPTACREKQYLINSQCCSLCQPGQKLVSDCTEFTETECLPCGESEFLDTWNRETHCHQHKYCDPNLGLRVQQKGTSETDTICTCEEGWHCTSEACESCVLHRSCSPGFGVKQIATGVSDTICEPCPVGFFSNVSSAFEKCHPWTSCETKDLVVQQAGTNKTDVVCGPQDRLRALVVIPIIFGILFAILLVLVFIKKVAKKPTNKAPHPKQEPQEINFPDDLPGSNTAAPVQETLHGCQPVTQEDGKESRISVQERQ
Procedure: (§1) Binding of constructs to target was assessed in HEK293-6e cells transiently expressing the target of interest.
(§2) Parental cells were maintained in 250 mL Erlenmeyer flasks (Corning, 431144) at 37° C., 5% CO2 in a rotating humidified incubator at 115 rpm. HEK293-6e cells were re-suspended to 1×10⁶ cells/mL in fresh Freestyle media before transfection. […] The DNA vectors that were used to express targets of interest were pTT5 vectors with full length targets of interest including Human Dectin-1, Human DEC205, Human CD40, Human HER2, Human ROR1 and mock vector containing GFP. The cells were incubated for 24 hours at 37° C. and 5% CO2 in a rotating humidified incubator at 115 rpm.
(§3) Construct samples were prepared at starting concentrations of 40 nM final in FACS buffer or 1×PBS pH 7.4 (Gibco, 1001023)+2% FBS in Eppendorf tubes. Samples were titrated in duplicate 1:4 down to 0.04 nM directly in the 384-well black optical bottom assay plate (Thermo Fisher, 142761). HEK293-6e cells expressing target of interest were harvested and re-suspended in FACS buffer at 10,000 cells per 30 μl. To visualize cell nuclei as a focusing channel, Vybrant™ DyeCycle™ Violet nuclear stain (Life Tech, V35003) was added to cells at 2 μM final concentration. To detect binding of test construct sample to cells, Goat anti-Human IgG Fc A647 (Jackson ImmunoResearch, 115-605-071) was added to cells at 0.6 μg/mL final. The cells were vortexed briefly to mix and plated at 10,000 cells/well. The plate was incubated at room temperature for 3 hours before scanning. Data analysis was performed on the CellInsight™ with the HCS high content screening platform (Thermo Scientific), using BioApplication “CellViability” with a 10× objective. Samples were scanned on the 385 nm channel to visualize nuclear staining and channel 650 nm to assess cell binding. The mean object average fluorescence intensity of A647 was measured on channel 2 to determine binding intensity on all cell conditions.

Human HER2 = molecular target: T2, Human HER2 (human, UniProt P04626 23-1255)
T2 construct: whole, on cells
Procedure: as §1, §2, §3

Human DEC205 = molecular target: T3, Human DEC205 (human, UniProt O60449 28-1722)
T3 construct: whole, on cells
T3 sequence (O60449 28-1722): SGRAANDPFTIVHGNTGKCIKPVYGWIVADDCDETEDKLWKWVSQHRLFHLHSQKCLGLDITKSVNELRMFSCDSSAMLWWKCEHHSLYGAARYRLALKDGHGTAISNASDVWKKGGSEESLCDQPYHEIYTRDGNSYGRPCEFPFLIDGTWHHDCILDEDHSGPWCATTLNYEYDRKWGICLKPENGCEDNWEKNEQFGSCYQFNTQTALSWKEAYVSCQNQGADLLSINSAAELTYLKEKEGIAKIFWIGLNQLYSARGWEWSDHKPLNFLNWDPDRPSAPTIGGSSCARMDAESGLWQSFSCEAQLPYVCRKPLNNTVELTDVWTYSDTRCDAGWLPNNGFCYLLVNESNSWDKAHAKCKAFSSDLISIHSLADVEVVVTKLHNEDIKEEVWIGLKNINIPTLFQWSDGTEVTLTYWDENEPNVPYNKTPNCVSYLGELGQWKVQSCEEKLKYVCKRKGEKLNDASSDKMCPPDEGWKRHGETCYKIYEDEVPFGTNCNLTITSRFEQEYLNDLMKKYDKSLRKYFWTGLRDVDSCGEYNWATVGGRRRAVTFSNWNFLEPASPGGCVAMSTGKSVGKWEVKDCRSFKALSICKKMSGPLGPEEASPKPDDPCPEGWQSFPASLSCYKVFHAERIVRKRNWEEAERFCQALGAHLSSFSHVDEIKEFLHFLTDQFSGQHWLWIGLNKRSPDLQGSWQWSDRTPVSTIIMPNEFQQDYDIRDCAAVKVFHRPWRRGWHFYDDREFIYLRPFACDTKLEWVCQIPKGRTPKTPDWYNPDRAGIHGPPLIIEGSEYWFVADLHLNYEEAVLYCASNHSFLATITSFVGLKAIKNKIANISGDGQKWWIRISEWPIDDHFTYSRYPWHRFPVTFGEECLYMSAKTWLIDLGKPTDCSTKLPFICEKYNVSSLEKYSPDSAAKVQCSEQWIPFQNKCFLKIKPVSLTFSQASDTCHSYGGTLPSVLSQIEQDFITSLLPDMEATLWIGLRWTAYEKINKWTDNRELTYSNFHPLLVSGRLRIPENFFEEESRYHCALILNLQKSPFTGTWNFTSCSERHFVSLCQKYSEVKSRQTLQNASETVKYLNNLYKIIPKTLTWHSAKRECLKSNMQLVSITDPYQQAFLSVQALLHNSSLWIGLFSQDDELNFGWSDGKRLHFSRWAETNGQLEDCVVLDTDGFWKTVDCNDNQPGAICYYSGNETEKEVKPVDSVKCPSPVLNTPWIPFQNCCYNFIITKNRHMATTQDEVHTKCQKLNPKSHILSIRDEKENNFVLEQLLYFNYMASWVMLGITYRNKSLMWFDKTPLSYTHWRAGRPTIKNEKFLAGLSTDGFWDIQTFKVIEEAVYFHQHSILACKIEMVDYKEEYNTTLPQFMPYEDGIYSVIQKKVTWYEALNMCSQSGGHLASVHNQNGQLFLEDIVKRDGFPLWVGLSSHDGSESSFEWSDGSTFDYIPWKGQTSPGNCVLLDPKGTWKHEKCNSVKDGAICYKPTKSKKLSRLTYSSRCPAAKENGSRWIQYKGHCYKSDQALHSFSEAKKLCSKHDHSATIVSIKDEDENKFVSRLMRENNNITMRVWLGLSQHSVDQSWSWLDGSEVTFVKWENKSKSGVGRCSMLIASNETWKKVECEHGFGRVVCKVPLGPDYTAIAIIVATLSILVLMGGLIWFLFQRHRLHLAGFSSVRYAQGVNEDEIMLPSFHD
Procedure: as §1, §2, §3

Binder	binding result (Human CD40)	binding result (Human HER2)	binding result (Human DEC205)
B1	binds	binds	
B2		binds	binds
